T1: ribosomal protein L7/L12 of Bacillus subtilis (BS), recombinant tagged fusion protein (Bacillus subtilis, UniProt P02394 1-123)
T1 sequence: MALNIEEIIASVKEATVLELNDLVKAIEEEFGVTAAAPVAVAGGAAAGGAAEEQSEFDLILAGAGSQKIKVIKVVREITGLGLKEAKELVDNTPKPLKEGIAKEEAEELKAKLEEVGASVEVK

T2: ribosomal protein L7/L12 of Pseudomonas aeruginosa (PA), recombinant tagged fusion protein (Pseudomonas aeruginosa, UniProt Q9HWC8 1-122)
T2 sequence: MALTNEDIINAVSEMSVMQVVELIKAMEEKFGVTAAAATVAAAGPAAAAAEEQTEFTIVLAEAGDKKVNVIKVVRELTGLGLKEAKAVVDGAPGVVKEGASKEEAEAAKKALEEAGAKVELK

B1: Generic Antibody C (CP141A190.1) (antibody, V domains shown)
VH: QVQLQQPGAELVKPGASVKLSCKTSGYNFTSNWIHWVKQRPGQGLEWIGEINPSNGRANYNEKFKNKATLTVDKSSSTAFMHLSSLTSEDSAVYFCSRGDFDEGFTYWGQGTLVTVSA
VL: QIVLTQSPAIMSASLGERVTMTCTASSNVNSDYLHWYQQKPGSSPRLWIYTTSNLASGVPTRFSGNGSGTSYSLTISSMEAEDAATYYCHQYHRSPRTFGGGTKLEIK
B2: Generic Antibody B (LP54A3) (antibody, V domains shown)
VH: EVQLQQSGAELVKPGASVRLSCSASGFNIKDTYMHWMRQRPEQGLEWIGRIDPANGNAKYDPKFQVKATITADTSSNTASLQFSSLTSEDTAVYFCASESLDDMYYFDYWGQGTTLTVSS
VL: DIVMTQSQKFMSTSVGDRVSVTCKASQNVGVNVAWYQQKPGQSPKALIYSASYRYSGVPDRFTGSGSGTDFTLTISNVQSEDLAEYFCQQYHSYLYTFGGGTKLEIK
B3: Specific Antibody A (HI142D11.3) (antibody, V domains shown)
VH: EVQLQQSGAELVKPGASVKLSCTASGFNIKDTYIHWVKQRPEQGLEWIGRIDPANGNTKYDPKFQGKATITADTSSNTAYLQLSSLTSEDTAVYYCPRPYGYVGWYFDVWGAGTTVTVSS
VL: DIVMTQSHKFMSTSVGDRVSITCKASQDVRNAVAWYQQKPGQSPKLLISSASYRYSGVPDRFTGSGSGTDFTFTISSVQAEDLAVYYCQQHYDTPPTFGGGTKLEIK
B4: Specific Antibody D (EC50C1) (antibody, V domains shown)
VH: QVQLQQSGAELAKPGASVKMSCKASGYTFTSYWMNWVKQRPGQGLEWIGYINPNTGYTEYDQKFKDKATLTADKSSSTAYMQLSSLTSEDSAVYYCARYWAYFEYWGQGTTLTVSS
VL: DIKMTQSPSSMYASLGERVTITCKASQDINSYLSWFQQKPGKSPKTLIYRANRLVDGVPSRFSGSGSGQDYSLTISSLEYEDMGIYYCLQYDEFRTFGGGTKLEIK
B5: Generic Antibody A (PA51B2) (antibody, V domains shown)
VH: QVQLQQPGSVLVRPGASVKLSCKPSGYTFTGSWMHWTKQRPGQGLEWIGEIHPYSGNTNYNEKFRVKATLTVDTSSSTTYVDLSSLTSDDSAVYYCASGDFDAGFTYWGQGTLVTVSA
VL: DIVLTQSPASLAVSLGRRATISCKASQSVDYDGDSYMNWYQQKPGQPPKLLIYVASNLESGIPARFSGSGSGTDFTLNIHPVEEEDAATYYCQQTNEDPFTFGAGTKLELK

What was measured:
[1] = target: ribosomal protein L7/L12 of Salmonella enterica (SE), recombinant tagged fusion protein (Salmonella enterica); assay: ELISA on coated recombinant L7/L12, antibody 10 ug/mL
[2] = target: ribosomal protein L7/L12 of Listeria monocytogenes (LM), recombinant tagged fusion protein (Listeria monocytogenes); assay: as above
[3] = target: ribosomal protein L7/L12 of Staphylococcus aureus (SA), recombinant tagged fusion protein (Staphylococcus aureus); assay: as above
[4] = target: ribosomal protein L7/L12 of Citrobacter freundii (CF), recombinant tagged fusion protein (Citrobacter freundii); assay: as above
[5] = target: ribosomal protein L7/L12 of Rahnella aquatilis (RA), recombinant tagged fusion protein (Rahnella aquatilis); assay: as above
[6] = target: T1, ribosomal protein L7/L12 of Bacillus …; assay: as above
[7] = target: ribosomal protein L7/L12 of Klebsiella pneumoniae (KP), recombinant tagged fusion protein (Klebsiella pneumoniae); assay: as above
[8] = target: T3, ribosomal protein L7/L12 of Escherichia coli (EC), recombinant tagged fusion protein (Escherichia coli, UniProt P0A7K2 1-121); assay: as above
[9] = target: T2, ribosomal protein L7/L12 of Pseudomonas …; assay: as above
[10] = target: ribosomal protein L7/L12 of Serratia liquefaciens (SL), recombinant tagged fusion protein (Serratia liquefaciens); assay: as above
[11] = target: ribosomal protein L7/L12 of Enterobacter cloacae (ECL), recombinant tagged fusion protein (Enterobacter cloacae); assay: as above
[12] = target: T3, ribosomal protein L7/L12 of Escherichia …; assay: ELISA on coated recombinant L7/L12 (10 ng/mL), antibody 10 ug/mL, A450; + means absorbance >= 0.3

Row | Binder | absorbance (450 nm) [1] | absorbance (450 nm) [2] | absorbance (450 nm) [3] | absorbance (450 nm) [4] | absorbance (450 nm) [5] | absorbance (450 nm) [6] | absorbance (450 nm) [7] | absorbance (450 nm) [8] | absorbance (450 nm) [9] | absorbance (450 nm) [10] | absorbance (450 nm) [11] | binding result [12]
1 | B1 | ≥ 0.3 | ≥ 0.3 | ≥ 0.3 | ≥ 0.3 | ≥ 0.3 | ≥ 0.3 | ≥ 0.3 | ≥ 0.3 | ≥ 0.3 | ≥ 0.3 | ≥ 0.3 | 
2 | B2 |  |  |  |  |  | ≥ 0.3 |  | ≥ 0.3 | ≥ 0.3 |  |  | 
3 | B3 |  |  |  |  |  |  |  |  |  |  |  | binds
4 | B4 |  |  |  |  |  |  |  |  |  |  |  | binds
5 | B5 | ≥ 0.3 | ≥ 0.3 | ≥ 0.3 | ≥ 0.3 | ≥ 0.3 | ≥ 0.3 | ≥ 0.3 | ≥ 0.3 | ≥ 0.3 | ≥ 0.3 | ≥ 0.3 | 

Source: patent publication US20240069021A1 (ASAHI KASEI, published 2024)
